Assay results taken from patent US12233115B2, “Long-acting parathyroid hormone” (Extend Biosciences, Inc., priority 2022, dated 2025).
Like-named read-outs stand apart in the source and are kept apart here.

Assays:
[1] = Single dose pharmacokinetics of EXT607 in male rats; settings: rat, in vivo, sc; rats, after subcutaneous dosing; read-out: terminal half-life
Experimental: In a single dose pharmacokinetic study, EXT607 was formulated in PBS and groups of male rats (n=3) were dosed at a volume of 1 ml/kg as follows: Group 1, 100 μg/kg intravenous; Group 2, 30 μg/kg subcutaneous; Group 3, 100 μg/kg subcutaneous; Group 4, 300 μg/kg subcutaneous. Blood (0.25 mL) was collected via the jugular vein cannula, transferred into tubes containing K2EDTA, and kept on wet ice until processed for plasma. Blood samples were collected at 0 (predose), 0.083 (IV only), 0.25, 0.5, 1, 2, 4, 6, 8, 12, 24, 36, 48, 60 and 72 h postdose.
(§1) Pharmacokinetic parameters were determined from the plasma concentration versus time data (Table 4) by a non-compartmental analysis with uniform weighting using Phoenix® WinNonlin® Version 6.3 (Certara L.P. (Pharsight), St. Louis, MO). The concentration versus time data were analyzed using the IV bolus or extravascular administration models. Best fit Lambda z ranges were used.

[2] = Single dose pharmacokinetics of EXT607 in male cynomolgus monkeys; type: in vivo; settings: cynomolgus monkey, in vivo, sc; NHP, after subcutaneous dosing; read-out: terminal half-life
Experimental: In a single dose pharmacokinetic study, EXT607 was formulated in PBS and groups of male cynomolgus monkeys (n=3), weighing approximately 4 kg each, were dosed at a volume of 1 ml/kg as follows: Group 1, 20 μg/kg intravenous; Group 2, 7 μg/kg subcutaneous; Group 3, 20 μg/kg subcutaneous; Group 4, 70 μg/kg subcutaneous. Blood (1.0 mL) was collected via the jugular vein cannula, transferred into tubes containing K2EDTA, and kept on wet ice until processed for plasma. Blood samples were collected at 0 (pre-dose), 0.083 (IV only), 0.25, 0.5, 1, 2, 4, 6, 8, 12, 24, 36, 48, 60 and 72 h post-dose.
as §1, with “5)” for “4)”
At low doses, the rate of subcutaneous absorption is slower than at high doses, leading to a lower Cmax and an overall flatter PK profile.

[3] = Repeat dose pharmacokinetics of EXT608 in male and female rats; type: in vivo; settings: rat; for Cmin: 0-24 h; for AUC(0-t): sc, read-out: AUC0-24 h
Experimental: 21-Day Experiment: EXT608 was formulated in 20 mM sodium acetate pH=5.5 buffer with 0.8% sodium chloride. In a repeat dose toxicokinetic study, groups of 18 rats (9 males+9 females) were subcutaneously dosed daily at a volume of 0.5 ml/kg with either 14.2 μg/kg or 70 μg/kg of EXT608. On Day 21, blood samples (˜0.5 ml) were collected at t=0 (pre-dose), 0.5, 1, 3, 8, 24, 32, 48, and 72 h with each timepoint being collected from one of three cohorts of 3 male and 3 female animals. Each blood sample was collected from the jugular vein into tubes containing K2EDTA and manually inverted several times. Blood samples were kept on wet ice pending centrifugation. Samples were centrifuged (˜2700 g, ˜10 min, ˜5° C.) within 1 hour of collection. Plasma was recovered and divided evenly into duplicate aliquots and frozen. 90-Day Experiment: EXT608 was formulated in 20 mM sodium acetate pH=5.5 buffer with 0.8% sodium chloride and 0.1% Polysorbate 80. In a repeat dose toxicokinetic study, groups of 18 rats (9 males+9 females) were subcutaneously dosed daily at a volume of 0.5 ml/kg with either 1, 3, or 10 μg/kg of EXT608. On Day 90, blood samples (˜0.5 ml) were collected at t=0 (pre-dose), 0.5, 1, 3, 8, 24, 32, 48, and 72 h with each timepoint being collected from one of three cohorts of 3 male and 3 female animals. Plasma was prepared as described above for the 21-Day experiment. […] Group-averaged EXT608 levels as a function of time are shown in FIG. 13 for the last dose administration after either 21 days of daily dosing (14.2 and 70 μg/kg) or 90 days of daily dosing (1, 3, and 10 μg/kg). Surprising, the PK profiles changed as a function of dose level. […] Pharmacokinetic parameters were determined from the plasma concentration versus time data (Table 6) by a non-compartmental extravascular administration model with uniform weighting using Phoenix® WinNonlin® Version 6.4 (Certara L.P. (Pharsight), Princeton, NJ). Pharmacokinetic analysis was performed on data collected from t=0 to 72 h following the last administered dose. […] The Cmax/Cmin ratio represents the peak-to-trough ratio of EXT608 concentration that was observed during the dosing period. […] Without being bound by theory, the low peak-to-trough ratios observed at low doses could be the result of a slower rate of absorption of EXT608 from the subcutaneous space into circulation. A low peak-to-trough ratio is desirable in many therapeutic applications, including parathyroid hormone replacement therapy. It allows dosing at levels close to the ideal efficacious dose without going too high where toxicity might be observed or too low where the efficacy is reduced.

[4] = in vivo, 1 ug/kg, daily SC 1 μg/kg, 90 days

For `C=C1CC[C@H](OCCCNC(=O)CCOCCOCCOCCOCCOCCOCCOCCOCCOCCOCCOCCOCCOCCOCCOCCOCCOCCOCCOCCOCCOCCOCCOCCOCCOCCOCCOCCOCCOCCOCCOCCOCCOCCOCCOCCOCCNC(=O)CCN2C(=O)CC(SC[C@H](NC(=O)[C@H](Cc3ccccc3)NC(=O)[C@H](CC(N)=O)NC(=O)[C@H](Cc3c[nH]cn3)NC(=O)[C@@H](NC(=O)[C@H](CC(=O)O)NC(=O)[C@H](CCC(N)=O)NC(=O)[C@H](CC(C)C)NC(=O)[C@H](CCCCN)NC(=O)[C@H](CCCCN)NC(=O)[C@H](CCCNC(=N)N)NC(=O)[C@H](CC(C)C)NC(=O)[C@H](Cc3c[nH]c4ccccc34)NC(=O)[C@H](CCC(=O)O)NC(=O)[C@@H](NC(=O)[C@H](CCCNC(=N)N)NC(=O)[C@H](CCC(=O)O)NC(=O)[C@H](CCSC)NC(=O)[C@H](CO)NC(=O)[C@H](CC(N)=O)NC(=O)[C@H](CC(C)C)NC(=O)[C@H](Cc3c[nH]cn3)NC(=O)[C@H](CCCCN)NC(=O)CNC(=O)[C@H](CC(C)C)NC(=O)[C@H](CC(N)=O)NC(=O)[C@H](Cc3c[nH]cn3)NC(=O)[C@H](CCSC)NC(=O)[C@H](CC(C)C)NC(=O)[C@H](CCC(N)=O)NC(=O)[C@@H](NC(=O)[C@H](CCC(=O)O)NC(=O)[C@H](CO)NC(=O)[C@@H](NC(=O)[C@@H](N)CO)C(C)C)[C@@H](C)CC)C(C)C)C(C)C)C(N)=O)C2=O)C/C1=C/C=C1\CCC[C@]2(C)[C@@H]([C@H](C)CCCC(C)(C)O)CC[C@@H]12` (some centres unmarked) [EXT608], which half-life [1] is on record?
The half-life was 8 to 15 h.

And the half-life [2]?
Its half-life is 24 to 32 h.

What about the Tmax [3, 4] of the same compound?
Its Tmax is 1 h.

What about the half-life ([3]; in vivo, repeated daily SC dosing, across doses 1-70 μg/kg, read-out: t1/2 of elimination) of the same compound?
Its half-life is 10.4 to 13.8 h.

And the Cmin ([3]; daily SC 1 μg/kg, 90 days)?
Its Cmin is 0.299 ng/mL.

And the Cmin ([3]; daily SC 3 μg/kg, 90 days)?
The Cmin was 0.875 ng/mL.

What about the Cmin ([3]; daily SC 10 μg/kg, 90 days) of the same compound?
Its Cmin is 1.56 ng/mL.

What about the Cmin ([3]; daily SC 14.2 μg/kg, 21 days) of the same compound?
Its Cmin is 2.35 ng/mL.

What about the Cmin ([3]; daily SC 70 μg/kg, 21 days) of the same compound?
Its Cmin is 5.92 ng/mL.

And the AUC(0-t) [3, 4]?
The AUC(0-t) was 11.2 ng·h/mL.

What about the AUC(0-t) ([3]; in vivo, 3 ug/kg, daily SC 3 μg/kg, 90 days) of the same compound?
Its AUC(0-t) is 29.9 ng·h/mL.

What about the AUC(0-t) ([3]; in vivo, 10 ug/kg, daily SC 10 μg/kg, 90 days) of the same compound?
Its AUC(0-t) is 93.2 ng·h/mL.

And the AUC(0-t) ([3]; in vivo, 14.2 ug/kg, daily SC 14.2 μg/kg, 21 days)?
The AUC(0-t) was 149 ng·h/mL.

What about the AUC(0-t) ([3]; in vivo, 70 ug/kg, daily SC 70 μg/kg, 21 days) of the same compound?
Its AUC(0-t) is 875 ng·h/mL.
